Measured values as given in paper PMC9213739, “Substrates and Loaded Iron Ions Relative Position Influence the Catalytic Characteristics of the Metalloenzymes Angelica archangelica Flavone Synthase I and Camellia sinensis Flavonol Synthase” (Frontiers in Pharmacology, 2022).

Substrate: COc1ccc([C@@H]2CC(=O)c3c(O)cc(O)cc3O2)cc1O
Assay: UPLC-MS product formation, Lineweaver-Burk
Format: biochemical, Camellia sinensis
Settings: 4'-O-methyl taxifolin formation (main product), Tris-HCl pH 7.5, 23 °C, 1 h, 5 mM 2-mercaptoethanol, 1 mM NADPH, 'separated protein', purification not described
From the text: UPLC-MS product formation, Lineweaver-Burk on CaFLS

B1: CaFLS (Camellia sinensis) (protein)
chain: MEVERVQALSHVTLHELPAKFIRPAHEQPENSKAIEGVTVPVISLSRPHDVVVDALSKACSEWGFFLITDHGVEPSLIGRLKEVGEEFFKLPQKEKESYANDPSSGSFEGYGTKMTKNFDEKVEWIDYYFHVMHPPKKLNLDMWPKNPSSYRGVTEEYNVEILRTTNKLLELLSEGLGLDGKVLNSSLGGDEIEFEMKINMYPPCPQPELALGVEPHTDMSALTLLIPNDVPGLQVWKDGNWVAVNYLPNALFVHVGDQLEVLSNGKYKSVLHRSLVNKERTRMSWAVFVVPPHEAVIGPLPELIDEKNPAKYSTKTYAEYRYRKFNKIPQ
notes: synthetic gene in pET-28a(+) (NcoI/XhoI), expressed in E. coli BL21(DE3); 331 residues; mutants carry fragments of AnFNS I
Km: 55.47 µM | Vmax: 0.0558 µmol/min/mg | kcat: 0.0349 s⁻¹ | kcat/Km: 629 M⁻¹ s⁻¹
